Results from patent US20190330665A1.

Target: T7 RNA polymerase (UniProt P00573)
Assay: cell-based or functional assay

“catalytically-deactivated variant of T7 lysozyme (LysY) (from UniProt P00806 2-151)” showed a decrease in basal mNeonGreen expression in exponential phase (PT7:mNeonGreen reporter, PurtA:T7pol biosensor strain) of 78%.
